Results taken from US20080160574A1 (KOREA ADVANCED INSTITUTE OF SCIENCE AND TECHNOLOGY KAIST, published 2008).

Assays:
[1] = biological target: T1, soluble Tie2-Fc (fusion of the ectodomain of Tie-2 receptor and the Fc domain of human IgG1, R&D Inc) (human, UniProt Q02763 23-748); assay: binding assay with soluble Tie2 (details not given)
T1 construct: Bought (R&D Inc) for the Biacore assay; human Tie2 would be UniProt Q02763; also called sTie2-Fc; T2; not shown: Fc domain of human IgG1 and any linker
T1 sequence (Q02763 23-748 limits assumed): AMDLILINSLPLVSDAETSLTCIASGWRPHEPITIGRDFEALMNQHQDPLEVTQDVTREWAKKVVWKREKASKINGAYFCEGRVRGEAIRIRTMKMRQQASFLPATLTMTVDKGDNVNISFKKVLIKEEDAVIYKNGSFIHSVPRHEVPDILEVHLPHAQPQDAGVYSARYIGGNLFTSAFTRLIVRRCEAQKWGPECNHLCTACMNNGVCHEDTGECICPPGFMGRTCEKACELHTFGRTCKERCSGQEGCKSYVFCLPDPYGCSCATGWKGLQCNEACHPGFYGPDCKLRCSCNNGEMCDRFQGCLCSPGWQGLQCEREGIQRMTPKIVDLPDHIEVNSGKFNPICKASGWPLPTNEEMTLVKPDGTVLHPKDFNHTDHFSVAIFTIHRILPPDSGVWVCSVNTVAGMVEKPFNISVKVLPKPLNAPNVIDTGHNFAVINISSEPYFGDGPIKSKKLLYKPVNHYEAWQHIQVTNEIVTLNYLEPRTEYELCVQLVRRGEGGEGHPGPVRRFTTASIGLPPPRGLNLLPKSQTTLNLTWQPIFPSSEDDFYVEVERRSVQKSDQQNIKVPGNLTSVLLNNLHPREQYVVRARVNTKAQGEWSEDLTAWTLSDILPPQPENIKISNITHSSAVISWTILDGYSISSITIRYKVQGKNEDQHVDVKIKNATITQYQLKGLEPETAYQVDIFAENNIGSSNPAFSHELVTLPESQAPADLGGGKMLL

[2] = biological target: T1, soluble Tie2-Fc (fusion of the …); assay: Biacore, Tie2-Fc immobilized on CM5 chip
Method: (§1) FIGS. 10A-10D show in vitro binding assay between recombinant native Ang1, GCN4-Ang1/FD, CMP-Ang1/FD, or COMP-Ang1/FD and immobilized soluble Tie2-Fc using Biacore assay. Each recombinant protein was passed over a Biacore sensor chip that had extracellular domain of Tie2-Fc and Fc protein covalently coupled to it, followed by dissembling in absence of the recombinant proteins. Concentrations of the recombinant proteins are shown in each panel. Specificity of binding was assessed by subtracting Fc protein binding value from Tie2-Fc binding value during the measurement. Binding of the sensor chip is provided in resonance units (RUs).
(§2) Alternatively, to determine whether the COS-7 cell-derived recombinant proteins of native Ang1, GCN4/CC-Ang1/FD, CMP/CC-Ang1/FD and COMP/CC-Ang1/FD could bind to Tie-2 receptor, standard Biacore analysis was performed by BIA2000 (BIAcore, Inc.). Briefly, 600 ng of Tie-2-Fc receptor protein (R&D Inc), which is a fusion protein composed of the ectodomain of Tie-2 receptor and Fc domain of human IgG1, was immobilized on a Biacore chip (Sensor Chip CM5). As a control, 600 ng of Fc protein, which had only the Fc domain of human IgG1, was also immobilized on the same chip. The binding affinity was obtained by subtracting the response value using Fc protein from the values obtained using the Tie-2-Fc protein.

[3] = biological target: T1, soluble Tie2-Fc (fusion of the …); assay: protein-A pull-down with sTie2-Fc, anti-FLAG Western blot
Method: Twenty nanograms of each protein was incubated with 100 ng of sTie1-Fc or sTie2-Fc for […], and then, protein-A conjugated agarose beads were added. The precipitate was separated by 10% SDS-PAGE, and electro-blotted on to nitrocellulose membranes. The nitrocellulose membranes were Western blotted with anti-FLAG M1 antibody, washed, and incubated with horseradish peroxidase-conjugated secondary antibody. Signals were visualized by chemiluminescent detection according to the manufacturer's protocol (Amersham Pharmacia Biotech) and chemiluminescence scanner (LAS-1000, Fuji Film, Tokyo). CB, control buffer; PC, positive control of same amount of each recombinant protein without binding.
Twenty nanograms of each recombinant chimeric-Ang1 protein and 100 ng of soluble Tie1-Fc or soluble Tie2-Fc were incubated in 500 μl Tris-buffer solution (50 mM Tris, 100 mM NaCl, pH 7.4) containing 0.02% TritonX-100 at 4° C. for 2 hr. Then, 20 μl of protein-A agarose beads (Oncogene) was added and incubated for another 1 hr at 4° C. The protein-A conjugated samples were washed twice with 1 ml of Tris-buffer containing 0.02% TritonX-100. The samples were eluted with sample buffer, and heat-denatured. The samples were further separated by 10% SDS-PAGE, and electro-blotted on to nitrocellulose membranes, and Western blotted with anti-FLAG M1 antibody to detect the bound recombinant chimeric-Ang1, and further washed and incubated with horseradish peroxidase-conjugated secondary antibody. Signal was visualized by chemiluminescent detection according to the manufacturer's protocol (Amersham Pharmacia Biotech) using chemiluminescence scanner (LAS-1000, Fuji Film, Tokyo). Approximately 75%, 20%, 95% or 100% of native Ang1, GCN4-Ang1/FD, CMP-Ang1/FD, and COMP-Ang1/FD, respectively, bound to sTie2-Fc. In contrast, none of them bound to sTie1-Fc.

[4] = biological target: Tie2 receptor on human umbilical vein endothelial cells (HUVECs) (human, UniProt Q02763 23-1124); assay: cell-based or functional assay
Sequence of Tie2 receptor on human umbilical vein endothelial cells (HUVECs) (Q02763 23-1124): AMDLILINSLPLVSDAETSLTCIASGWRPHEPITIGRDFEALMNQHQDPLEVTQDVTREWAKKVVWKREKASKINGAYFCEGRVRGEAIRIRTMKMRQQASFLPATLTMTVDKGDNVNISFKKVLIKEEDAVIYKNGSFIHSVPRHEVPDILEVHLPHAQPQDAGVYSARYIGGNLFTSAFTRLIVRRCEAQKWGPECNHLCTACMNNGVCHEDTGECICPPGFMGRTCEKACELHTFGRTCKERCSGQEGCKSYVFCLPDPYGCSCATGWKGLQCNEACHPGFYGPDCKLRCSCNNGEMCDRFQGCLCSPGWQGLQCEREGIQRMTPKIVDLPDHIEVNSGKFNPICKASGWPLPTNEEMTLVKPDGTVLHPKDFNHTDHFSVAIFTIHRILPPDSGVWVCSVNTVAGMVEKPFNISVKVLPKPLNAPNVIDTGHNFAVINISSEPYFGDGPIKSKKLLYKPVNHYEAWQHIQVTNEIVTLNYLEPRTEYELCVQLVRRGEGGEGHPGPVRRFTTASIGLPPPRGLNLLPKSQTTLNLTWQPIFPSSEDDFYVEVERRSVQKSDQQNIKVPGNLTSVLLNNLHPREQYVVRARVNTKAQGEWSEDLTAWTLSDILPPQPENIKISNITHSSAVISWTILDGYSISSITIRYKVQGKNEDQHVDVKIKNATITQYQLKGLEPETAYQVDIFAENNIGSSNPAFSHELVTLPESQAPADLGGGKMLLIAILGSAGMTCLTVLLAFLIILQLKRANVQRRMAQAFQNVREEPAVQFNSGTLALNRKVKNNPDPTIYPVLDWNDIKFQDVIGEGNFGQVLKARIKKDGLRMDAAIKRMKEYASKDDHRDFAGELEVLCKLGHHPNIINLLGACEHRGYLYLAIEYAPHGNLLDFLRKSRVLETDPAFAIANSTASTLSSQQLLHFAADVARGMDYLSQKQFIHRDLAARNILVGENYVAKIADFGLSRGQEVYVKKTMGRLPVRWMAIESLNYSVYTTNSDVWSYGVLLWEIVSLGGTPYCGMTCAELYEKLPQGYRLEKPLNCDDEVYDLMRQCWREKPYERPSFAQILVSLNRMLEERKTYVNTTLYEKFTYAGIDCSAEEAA

[5] = biological target: T1, soluble Tie2-Fc (fusion of the …); assay: Biacore, Tie2-Fc immobilized on CM5 chip, Fc reference subtracted
Method: as §1, §2

B1: Ang1/FD (truncated Ang1 that contains only the fibrinogen-like domain, amino acids 284-498) (ligand)
chain: RDCADVYQAGFNKSGIYTIYINNMPEPKKVFCNMDVNGGGWTVIQHREDGSLDFQRGWKEYKMGFGNPSGEYWLGNEFIFAIYSQRQYMLRIELMWEGNRAYSQYDRFHIGNEKQNYRLYLKGHTGYAGKQSSLILHGADFSTKDADNDNCMCKCALMLTGGWWFDACGPSNLNGMFYTAGQNHGKLNGIKWHYFKGPSYSLRSTTMMIRPLDF
notes: The range 284-498 is counted on Ang1, not on the entry; also called monomeric Ang1/FD; recombinant Ang1/FD
binding result [1]: no binding

B2: native Ang1 (recombinant FLAG-tagged human angiopoietin-1 with C-terminal Myc and His tags) (ligand)
chain: DYKDDDDKLRYNRIQHGQCAYTFILPEHDGNCRESTTDQYNTNALQRDAPHVEPDFSSQKLQHLEHVMENYTQWLQKLENYIVENMKSEMAQIQQNAVQNHTATMLEIGTSLLSQTAEQTRKLTDVETQVLNQTSRLEIQLLENSLSTYKLEKQLLQQTNEILKIHEKNSLLEHKILEMEGKHKEELDTLKEEKENLQGLVTRQTYIIQELEKQLNRATTNNSVLQKQQLELMDTVHNLVNLCTKEGVLLKGGKREEEKPFRDCADVYQAGFNKSGIYTIYINNMPEPKKVFCNMDVNGGGWTVIQHREDGSLDFQRGWKEYKMGFGNPSGEYWLGNEFIFAITSQRQYMLRIELMDWEGNRAYSQYDRFHIGNEKQNYRLYLKGHTGTAGKQSSLILHGADFSTKDADNDNCMCKCALMLTGGWWFDACGPSNLNGMFYTAGQNHGKLNGIKWHYFKGPSYSLRSTTMMIRPLDFDIQHSGGRSSLEGPRFEQKLISEEDLNMHTGHHHHHH
notes: Multimer of variable sizes under non-reducing conditions; Produced in COS-7 cells; also called nAng1
concentration at which binding was saturated [2]: > 125 nM | percent of input protein bound [3]: ~75% | Tie2 phosphorylation (ratio of phospho-Tie2 to Tie2, control buffer = 1) [4]: ~3.6 fold | Kd [5]: 0.0075 µM

B3: CMP/CC-Ang1/FD (coiled-coil domain of CMP - fibrinogen domain of Ang1) (ligand)
chain: YKDDDDKGILDEDPCECKSIVKFQTKVEELINTLQQKLEAVAKRIEALENKIIGSLVNLCTKEGVLLKGGKREEEKPFRDCADVYQAGFNKSGIYTIYINNMPEPKKVFCNMDVNGGGWTVIQHREDGSLDFQRGWKEYKMGFGNPSGEYWLGNEFIFAIYSQRQYMLRIELMDWEGNRAYSQYDRFHIGNEKQNYRLYLKGHTGTAGKQSSLILHGADFSTKDADNDNCMCKCALMLTGGWWFDACGPSNLNGMFYTAGQNHGKLNGIKWHYFKGPSYSLRSTTMMIRPLDF
notes: The end, 310, is worked out from bases 1-933 including the stop codon; ~140 kDa and ~180 kDa were observed under non-reducing conditions; also called CMP-Ang1/FD; C/CC-A1/FD
concentration at which binding was saturated [2]: ~30 nM | percent of input protein bound [3]: ~95% | Tie2 phosphorylation (ratio of phospho-Tie2 to Tie2, control buffer = 1) [4]: ~4 fold | Kd [5]: 0.067 µM

B4: GCN4/CC-Ang1/FD (coiled-coil domain of GCN4 - fibrinogen domain of Ang1) (ligand)
chain: DYKDDDDKGILMKQLEDKVEELLSKNYHLENEVARLKKLVGEGSLVNLCTKEGVLLKGGKREEEKPFRDCADVYQAGFNKSGIYTIYINNMPEPKKVFCNMDVNGGGWTVIQHREDGSLDFQRGWKEYKMGFGNPSGEYWLGNEFIFAIYSQRQYMLRIELMDWEGNRAYSQYDRFHIGNEKQNYRLYLKGHTGYAGKQSSLILHGADFSTKDADNDNCMCKCALMLTGGWWFDACGPSNLNGMFYTAGQNHGKLNGIKWHYFKGPSYSLRSTTMMIRPLDF
notes: The end, 298, is worked out from bases 1-897 including the stop codon; ~80 kDa under non-reducing conditions; also called GCN4-Ang1/FD; G/CC-A1/FD
concentration at which binding was saturated [2]: ~30 nM | percent of input protein bound [3]: ~20% | Kd [5]: 0.159 µM

B5: COMP/CC-Ang1/FD (coiled-coil domain of COMP - fibrinogen domain of Ang1) (ligand)
chain: DYKDDDDKGILDLAPQMLRELQETNAALQDVRELLRQQVKEITFLKNTVMECDACGGSLVNLCTKEGVLLKGGKREEEKPFRDCADVYQAGFNKSGIYTIYINNMPEPKKVFCNMDVNGGGWTVIQHREDGSLDFQRGWKEYKMGFGNPSGEYWLGNEFIFAIYSQRQYMLRIELMDWEGNRAYSQYDRFHIGNEKQNYRLYLKGHTGTAGKQSSLILHGADFSTKDADNDNCMCKCALMLTGGWWFDACGPSNLNGMFYTAGQNHGKLNGIKWHYFKGPSYSLRSTTMMIRPLDF
notes: The end, 312, is worked out from the stated lengths: 16 signal + 8 FLAG + 3 + 45 COMP + 2 + 238 Ang1 Leu261-498; ~180 kDa and ~250 kDa were observed under non-reducing conditions; also called COMP-Ang1/FD; CO/CC-A1/FD
concentration at which binding was saturated [2]: > 125 nM | percent of input protein bound [3]: ~100% | Tie2 phosphorylation (ratio of phospho-Tie2 to Tie2, control buffer = 1) [4]: ~8.8 fold | Kd [5]: 0.0205 µM
